Blank lines part the entries; values can stand above or below the molecule they belong to.
Experiments:
[1] = target: NRP1 expressed on COS cells (COS-NRP1); assay: cell-based or functional assay
[2] = target: the molecule itself; assay: sucrose density gradient sedimentation of C6 cell lysates, anti-NRP1 western blot

collapsed COS-1 cells expressing NRP1 and Plexin-A1 [1]: > 50%
Molecule: Sema3A (ligand)

B1: NRP1 on rat C6 glioma cells (receptor, rat (Rat C6 glioma cells), UniProt Q9QWJ9 22-922, looked up)
chain: FRSDKCGGTIKIENPGYLTSPGYPHSYHPSEKCEWLIQAPEPYQRIMINFNPHFDLEDRDCKYDYVEVIDGENEGGRLWGKFCGKIAPSPVVSSGPFLFIKFVSDYETHGAGFSIRYEIFKRGPECSQNYTAPTGVIKSPGFPEKYPNSLECTYIIFAPKMSEIILEFESFDLEQDSNPPGGVFCRYDRLEIWDGFPEVGPHIGRYCGQKTPGRIRSSSGILSMVFYTDSAIAKEGFSANYSVLQSSISEDFKCMEALGMESGEIHSDQITASSQYGTNWSVERSRLNYPENGWTPGEDSYREWIQVDLGLLRFVTAVGTQGAISKETKKKYYVKTYRVDISSNGEDWITLKEGNKAIIFQGNTNPTDVVFGVFPKPLITRFVRIKPASWETGISMRFEVYGCKITDYPCSGMLGMVSGLISDSQITASNQGDRNWMPENIRLVTSRTGWALPPSPHPYINEWLQVDLGDEKIVRGVIIQGGKHRENKVFMRKFKIAYSNNGSDWKMIMDDSKRKAKSFEGNNNYDTPELRAFTPLSTRFIRIYPERATHSGLGLRMELLGCEVEVPTAGPTTPNGNPVDECDDDQANCHSGTGDDFQLTGGTTVLATEKPTIIDSTIQSEFPTYGFNCEFGWGSHKTFCHWEHDSHAQLRWRVLTSKTGPIQDHTGDGNFIYSQADENQKGKVARLVSPVVYSQSSAHCMTFWYHMSGSHVGTLRVKLHYQKPEEYDQLVWMVVGHQGDHWKEGRVLLHKSLKLYQVIFEGEIGKGNLGGIAVDDISINNHIPQEDCAKPTDLDKKNTEIKIDETGSTPGYEEGKGDKNISRKPGNVLKTLDPILITIIAMSALGVLLGAVCGVVLYCACWHNGMSERNLSALENYNFELVDGVKLKKDKLNPQSNYSEA
notes: whole, on cells; It is not tied expressly to the C6 cells; also called neuropilin-1; receptor NRP1 on C6 cells
binding result [2]: binds

Reference: patent US20150307589A1 (INSERM INSTITUT NATIONAL DE LA SANTE ET DE LA RECHERCHE …, published 2015)
